From patent US20260317411 (published 2026)

T1: VEGF (UniProt P15692)
T1 chain: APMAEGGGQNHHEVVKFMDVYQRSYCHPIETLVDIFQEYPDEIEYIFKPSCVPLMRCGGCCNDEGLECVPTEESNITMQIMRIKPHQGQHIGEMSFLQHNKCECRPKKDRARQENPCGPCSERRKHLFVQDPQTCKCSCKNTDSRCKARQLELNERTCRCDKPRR


Biological target: T1, VEGF
Experiment: SPR

Kd [nM]	Binder
0.0205	scFv1 (antibody) DIQLTQSPSSLSASVGDRVTITCSASQDISNYLNWYQQKPGKAPKVLIYFTSSLHSGVPSRFSGSGSGTDFTLTISSLQPEDEATYYCQQYSTVPWTFGQGTKVEIKGGGSGGGSGGGSGGGSGGGSEVQLVESGGGLVQPGGSLRLSCAASGYDFTHYGMNWVRQAPGKGLEWVGWINTYTGEPTYAADFKRRFTFSLDTSKSTAYLQMNSLRAEDTAVYYCAKYPYYYGTSHWYFDVWGQGTLVTVSS
0.0236	scFv3 (antibody) DIQLTQSPSSLMASVGDRVTITCSASQDISNYLNWYQQKPGKAPKVLIYFTSSLHSGVPSRFSGSGSGTDFTLTISSLQPEDEATYYCQQYSTVPWTFGQGTKVEIKGGGSGGGSGGGSGGGSGGGSEVQLVESGGGLVQPGGSLRLSCAASGYDFTHYGMNWVRQAPGKGLEWVGWINTYTGEPTYAADFKRRFTFSLDTSKSTAYLQMNSLRAEDTAVYYCAKYPYYYGTSHWYFDVWGQGTLVTVSS
